{"source": "paper PMC6868389", "about": "“HER3-targeted protein chimera forms endosomolytic capsomeres and self-assembles into stealth nucleocapsids for systemic tumor homing of RNA interference in vivo” (Nucleic Acids Research, 2019)", "molecular_target": "the molecule itself", "test": "native gel or EMSA; native PAGE of purified HPK under neutral conditions (storage buffer 20 mM HEPES pH 7.45, 150 mM NaCl, 10% glycerol; pH 7.4), 4-15% gel, 25 mM Tris, 192 mM glycine pH 8.3"}
{"protein": "HPK, HER3-targeted penton base chimera (heregulin ligand - linker - Ad5 penton base - decalysine) (other, human | adenovirus serotype 5 (Ad5), domain II, oligopeptide linker; domain III, adenovirus serotype 5 capsid penton base (PB); domain IV, carboxy-terminal decalysine tail (K10); About 92 kDa monomer; also called HerPBK10; HPK capsomere; not shown: His6, N-terminal, kept) ELLPPRLKEMKSQESAAGSKLVLRCETSSEYSSLRFKWFKNGNELNRKNKPQNIKIQKKPGKSELRINKASLADSGEYMCKVISKLGNDSASANITIVESNEIITGMPASTEGAYVSSESPIRISVSTEGANTSSSTSTSTTGTSHLVKCAEKEKTFCVNGGECFMVKDLSNPSRYLCKCQPGFTGARCTENVPMKVQNQEKAEELYGGSGGSGSMRRAAMYEEGPPPSYESVVSAAPVAAALGSPFDAPLDPPFVPPRYLRPTGGRNSIRYSELAPLFDTTRVYLVDNKSTDVASLNYQNDHSNFLTTVIQNNDYSPGEASTQTINLDDRSHWGGDLKTILHTNMPNVNEFMFTNKFKARVMVSRLPTKDNQVELKYEWVEFTLPEGNYSETMTIDLMNNAIVEHYLKVGRQNGVLESDIGVKFDTRNFRLGFDPVTGLVMPGVYTNEAFHPDIILLPGCGVDFTHSRLSNLLGIRKRQPFQEGFRITYDDLEGGNIPALLDVDAYQASLKDDTEQGGGGAGGSNSSGSGAEENSNAAAAAMQPVEDMNDHAIRGDTFATRAEEKRAEAEAAAEAAAPAAQPEVEKPQKKPVIKPLTEDSKKRSYNLISNDSTFTQYRSWYLAYNYGDPQTGIRSWTLLCTPDVTCGSEQVYWSLPDMMQDPVTFRSTRQISNFPVVGAELLPVHSKSFYNDQAVYSQLIRQFTSLTHVFNRFPENQILARPPAPTITTVSENVPALTDHGTLPLRNSIGGVQRVTITDARRRTCPYVYKALGIVSPRVLSSRTFKKKKKKKKKK", "values": [{"measurement": "stoichiometry N", "value": "≥ 5"}]}
